Test results as given in article PMC4788467 (Leukemia, 2015).

What was measured:
[1] = target: biotinylated soluble HLA-A2/WT1_(126) (…) complex (Homo sapiens, HLA-A*02:01, biotin (the complex is biotinylated; site not stated)); experiment: SPR
[2] = target: T1, WT1 126-134 (RMFPNAPYL) peptide alone (human); experiment: ELISA
T1 chain: RMFPNAPYL

[3] = target: HLA-A2/WT1 187-195 (…) monomer (Homo sapiens, HLA-A*02:01, biotin (the complex is biotinylated; site not stated)); experiment: ELISA
[4] = target: HLA-A2/WT1 235-243 (…) monomer (Homo sapiens, HLA-A*02:01, biotin (the complex is biotinylated; site not stated)); experiment: ELISA

Binder	Kd [1] [nM]	koff [1] [s⁻¹]	kon [1] [M⁻¹ s⁻¹]	binding result [2]	binding result [3]	binding result [4]
S3.6 scFv (scFv, V domains shown) VH: EVQLLESGGGLVQPGGSLRLSCAASGFTFSSYAMSWVRQAPGKGLEWVSLIDPWGQETLYADSVKGRFTISRDNSKNTLYLQMNSLRAEDTAVYYCAKLTGRFDYWGQGTLVTVSS VL: DIQMTQSPSSLSASVGDRVTITCRASQSISNYLNWYQQKPGKAPKLLIYSASQLQSGVPSRFSGSGSGTVFTLTISSLQPEDFATYYCQQGPGTPNTFGQGTKVEIK	14.1	0.00177	126000	–	–	–
Q1L scFv (scFv, V domains shown) VH: EVQLLESGGGLVQPGGSLRLSCAASGFTFSSYAMSWVRQAPGKGLEWVSLIDPWGQETLYADSVKGRFTISRDNSKNTLYLQMNSLRAEDTAVYYCAKLTGRFDYWGQGTLVTVSS VL: DIQMTQSPSSLSASVGDRVTITCRASQSISSYLNWYQQKPGKAPKLLIYSASQLQSGVPSRFSGSGSGTDFTLTISSLQPEDFATYYCQQGPGTPNTFGQGTKVEIK	58.3	–	94300	–	–	–
Q2L scFv (scFv, V domains shown) VH: EVQLLESGGGLVQPGGSLRLSCAASGFTFSSYAMSWVRQAPGKGLEWVSLIDPWGQETLYADSVKGRFTISRDNSKNTLYLQMNSLRAEDTAVYYCAKLTGRFDYWGQGTLVTVSS VL: DIQMTQSPSSLSASVGDRVTITCRASQSISSYLNWYQQKPGKAPKLLIYSASLLQSGVPSRFSGSGSGTDFTLTISSLQPEDFATYYCQQGPGTPNTFGQGTKVEIK	3.08	0.000355	115000	no binding	no binding	no binding
Q2L scFv-Fc (Fc fusion) VH: EVQLLESGGGLVQPGGSLRLSCAASGFTFSSYAMSWVRQAPGKGLEWVSLIDPWGQETLYADSVKGRFTISRDNSKNTLYLQMNSLRAEDTAVYYCAKLTGRFDYWGQGTLVTVSS VL: DIQMTQSPSSLSASVGDRVTITCRASQSISSYLNWYQQKPGKAPKLLIYSASLLQSGVPSRFSGSGSGTDFTLTISSLQPEDFATYYCQQGPGTPNTFGQGTKVEIK	0.002	1.15e-06	484000	no binding	no binding	no binding
S3.1 scFv (scFv, V domains shown) VH: EVQLLESGGGLVQPGGSLRLSCAASGFTFSSYAMSWVRQAPGKGLEWVSLIDPWGQETLYADSVKGRFTISRDNSKNTLYLQMNSLGAEDTAVYYCAKLTGRFDYWGQGTLVTVSS VL: DIQMTQSPSSLSASVGDRVTITCRASQSISSYLNWYQQKPGKAPKLLIYSASQLQSGVPSRFSGSGSGTDFTLTISNLQPEDFATYYCQQGPGTPNTFGQGTKVEIK	12.9	0.00191	148000	–	–	–
S3.3 scFv (scFv, V domains shown) VH: EVQLLESGGGLVQPGGSLRLSCAASGFTFSSYAMSWVRQAPGKGLEWVSLIDPWGQETLYADSVKGRFTISRDNSKNTLYLQMNSLRAEDTAVYYCAKLTGRFDYWGQGTLVTVSS VL: NIQMTQSPSSLSASVGDRVTITCRASQSISSYLNWYQQKPGKAPKLLIYSASLLQSGVPSRFSGNGSGTDFTLTISSLQPEDFATYYCQQGPGTPNTFGQGTKVEIK	–	5.35e-05	22000	–	–	–
